In publication PMC2199961:
Values joined by “and” are separate entries in the source; they are usually repeats but may differ in a detail not shown here. Identical values can stand only once.

Target: aortic smooth muscle actin (alpha-smooth muscle actin) (bovine) (UniProt P62739)
Assay: co-sedimentation

percent of actin in the pellet (actin alone): 10% and 20%
percent of actin in the pellet (with anti-aSM-1 at 1:16 antibody/actin): > 60%
Substance: aortic smooth muscle actin (alpha-smooth muscle actin) (from UniProt P62739 3-377) (natural protein)
